“Also recorded” adds a separate entry of the source.
B1: ADC-1013 (antibody, chains of the INN, looked up, V domains shown)
VH: EVQLLESGGGLVQPGGSLRLSCAASGFTFSTYGMHWVRQAPGKGLEWLSYISGGSSYIFYADSVRGRFTISRDNSENALYLQMNSLRAEDTAVYYCARILRGGSGMDLWGQGTLVTVSS
VL: QSVLTQPPSASGTPGQRVTISCTGSSSNIGAGYNVYWYQQLPGTAPKLLIYGNINRPSGVPDRFSGSKSGTSASLAISGLRSEDEADYYCAAWDKSISGLVFGGGTKLTVL

How the values were obtained:
[1] = tested on: KPC-derived PDAC cell line (7940B, P9); assay: subcutaneous KPC-derived PDAC tumor model: tumor growth and overall survival; conditions: for anti-tumor activity / impact on tumor growth (in words): mouse, in vivo
CD40 [2] = biological target: T1, CD40 (Homo sapiens, UniProt P25942); conditions: cited from earlier work; for dependence on crosslinking for activity: CD40 stimulation
CD40 [3] = biological target: T1, CD40; conditions: binding to CD40; ADC-1013: even under acidic conditions (pH 5.4); read-out: binding affinity (Kd); cited from earlier work
FcR = conditions: cited from earlier work
[4] = biological target: CD40 ligand interaction with CD40 (Homo sapiens, UniProt P25942); conditions: cited from earlier work
B cell lymphoma lines = conditions: cited from earlier work
B cell = conditions: cited from earlier work
FcgRIIIa = FcgRIIIa (Homo sapiens, UniProt P08637); conditions: non-fucosylated, derived from dacetuzumab; cited from earlier work
[5] = intravenous infusion, more than 400 human subjects; cited from earlier work

T1 sequence (P25942 21-277): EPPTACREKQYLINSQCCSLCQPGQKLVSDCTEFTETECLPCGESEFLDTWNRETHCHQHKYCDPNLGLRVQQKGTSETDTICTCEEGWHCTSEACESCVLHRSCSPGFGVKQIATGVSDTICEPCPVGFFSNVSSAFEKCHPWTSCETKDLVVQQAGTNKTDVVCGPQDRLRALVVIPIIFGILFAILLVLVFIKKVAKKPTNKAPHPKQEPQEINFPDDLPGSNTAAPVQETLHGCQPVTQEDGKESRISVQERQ
Chain of CD40 ligand interaction with CD40 (P25942 21-277): as above
Chain of FcgRIIIa (P08637 17-254): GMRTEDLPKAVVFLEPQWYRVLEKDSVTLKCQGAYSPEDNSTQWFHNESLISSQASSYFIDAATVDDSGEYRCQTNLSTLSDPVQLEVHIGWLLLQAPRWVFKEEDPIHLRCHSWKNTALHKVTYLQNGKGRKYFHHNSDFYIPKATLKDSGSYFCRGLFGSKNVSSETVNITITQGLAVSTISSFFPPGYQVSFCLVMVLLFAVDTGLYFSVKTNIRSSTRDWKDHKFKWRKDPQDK

Row | Molecule | anti-tumor activity / impact on tumor growth (in words) [1] | dependence on crosslinking for activity (CD40 [2]) | Kd (CD40 [3]) | ability to block CD40 ligand binding [4] | agonist activity (CD40 [2]) | other results
1 | Nc1ccn([C@@H]2O[C@H](CO)[C@@H](O)C2(F)F)c(=O)n1 [Gemcitabine, reference compound] | no significant impact on tumor growth | – | – | – | – | –
2 | CP-870,893: anti-CD40 IgG2 antibody (Pfizer and VLST) | – | can mediate CD40 stimulation in the absence of cross-linking | 0.348 nM | does not block CD40 ligand interaction with CD40 | – | FcR binding (FcR): poor
3 | Dacetuzumab: humanized IgG1 antibody recognizing CD40 (Seattle Genetics) | – | – | 1 nM | enhances CD40 ligand binding to CD40 | partial agonist | anti-proliferative and pro-apoptotic properties against B cell lymphoma lines (B cell lymphoma lines): potent anti-proliferative and pro-apoptotic properties; activity in stimulating B cell proliferation (B cell): weak activity
4 | SEA-CD40: non-fucosylated humanized IgG1 anti-CD40 antibody derived from dacetuzumab (Seattle Genetics) | – | – | 1 nM | – | improved agonist activity | binding to FcgRIIIa (FcgRIIIa): enhanced binding
5 | β(1,6)-[poly-(1,3)-D-glucopyranosyl]-poly-β(1,3)-D-glucopyranose [IMPRIME PGG] | limited activity as monotherapy; also recorded: minimal activity | – | – | – | – | delay in tumor outgrowth / anti-tumor activity, previous experiment ([1]; previous experiment (data not shown)): 3 of 9; delay in tumor outgrowth (mice with delayed tumor growth) ([1]; single dose day 0: FGK45 0.1 mg i.p., IMPRIME PGG 1.2 mg i.v., gemcitabine 120 mg/kg day -2): 1 of 10; safety of systemic administration [5]: administered safely
6 | B1 | – | activity dependent on FcR binding and crosslinking | 0.01 nM | – | – | –
